The source of these data is patent publication US20230295310A1 (ABCELLERA BIOLOGICS, published 2023).

The target of test [1] is T1, human CD3 expressed on cells (Jurkat cells; human primary T cells) (human, UniProt P07766 23-207; P04234 22-171; P09693 23-182).
T1 construct: whole, on cells
The test is described as follows: flow cytometry, 25 nM, Jurkat cells. The essentials: (§1)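 Binding reported as fold over isotype: median fluorescence intensity divided by isotype control, with ≥10 scored positive. Cells were exposed to 25 nM antibody in PBS/2% FBS, 30 min, 4 °C, before flow cytometric read-out.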
Background: A flow cytometer gives signals particle by particle.

Test [2] has as its target T2, cynomolgus monkey CD3 expressed on cyno primary T cells (cynomolgus monkey, UniProt Q95LI5 22-198; Q95LI8 22-171; Q95LI7 23-181).
T2 construct: whole, on cells; CD3 complex on purified cynomolgus monkey CD3 pan T cells; also called cyno CD3
As to the kind of experiment: flow cytometry, cyno primary T cells. Put shortly:
as §1

Test [3] has as its target T1, human CD3 expressed on cells (Jurkat …). The test is described as follows: flow cytometry, 25 nM, human primary T cells. The essentials: as §1

T1 sequence (P07766 23-207, chain 1 of 3): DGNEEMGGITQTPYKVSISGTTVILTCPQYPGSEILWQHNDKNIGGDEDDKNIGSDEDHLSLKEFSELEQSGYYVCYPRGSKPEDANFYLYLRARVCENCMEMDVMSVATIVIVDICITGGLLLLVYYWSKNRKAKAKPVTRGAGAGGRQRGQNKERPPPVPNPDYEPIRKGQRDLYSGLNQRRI
T1 sequence (P04234 22-171, chain 2 of 3): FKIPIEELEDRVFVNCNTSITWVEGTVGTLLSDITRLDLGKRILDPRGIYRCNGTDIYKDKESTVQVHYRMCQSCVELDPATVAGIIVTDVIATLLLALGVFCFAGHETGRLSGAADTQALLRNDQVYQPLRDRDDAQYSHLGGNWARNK
T1 sequence (P09693 23-182, chain 3 of 3): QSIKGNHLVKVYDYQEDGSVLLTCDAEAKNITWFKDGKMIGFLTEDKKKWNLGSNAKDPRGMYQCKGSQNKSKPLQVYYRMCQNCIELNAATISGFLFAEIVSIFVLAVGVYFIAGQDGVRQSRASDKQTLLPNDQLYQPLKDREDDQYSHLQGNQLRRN
T2 sequence (Q95LI5 22-198, chain 1 of 3): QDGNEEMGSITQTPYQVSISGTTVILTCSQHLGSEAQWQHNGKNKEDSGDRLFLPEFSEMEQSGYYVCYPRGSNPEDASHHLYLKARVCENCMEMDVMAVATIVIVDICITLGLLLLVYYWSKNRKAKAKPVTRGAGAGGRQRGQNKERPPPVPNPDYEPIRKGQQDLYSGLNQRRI
T2 sequence (Q95LI8 22-171, chain 2 of 3): as the sequence (P04234 22-171, chain 2 of 3) above, with I5V, N15K, I20V, S32T, D33N, I34N, T64A, S74N, V83L, H141R counted along it
T2 sequence (Q95LI7 23-181, chain 3 of 3): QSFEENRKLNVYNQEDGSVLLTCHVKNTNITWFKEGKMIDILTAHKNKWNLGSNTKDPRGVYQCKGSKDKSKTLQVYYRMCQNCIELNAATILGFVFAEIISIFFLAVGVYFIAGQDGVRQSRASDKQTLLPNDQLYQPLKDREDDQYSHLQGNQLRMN

B1: mAb 276 (antibody, V domains shown)
VH: EVQLVESGGGLVQPGGSLRLSCAASGIPFSTYSMNWVRQAPGKGLEWVSYISGSSRTIYYADSVKGRFTISRDNAKKLLFLQMNSLRDEDTAVYYCAREGDYYDSSGWAYWGQGTLVTVSS
VL: DIQMTQSPSSLSASVGDRVTITCRASQNIYKYLNWYEQKPGRAPKLLIYTTSNLQSGVPSRFSGSGSGTAFTLIISSLQPEDFATYYCQQSYGSPYTFGQGTKLEIK
notes: VH/VL only
As for B1, the “Binding (FOI)” value in test [1] was determined as 156 FOI; in test [3], 149 FOI. Further, the binding result in test [2] is “no binding (tested: FOI <10 (FOI >=10 = positive); 25 nM)”.

B2: mAb 256 (antibody, V domains shown)
VH: QVQLQQSGPGLVKPSQTLSLTCAISGDSVSSNYASWNWIRQSPSRGLEWLGRTYYRSKWYNDFAVSVKSRVTINADTSKNQFSLHLSSVTPEDTAIYFCAREANGRGYFYYMDVWGKGTTVTVSS
VL: EIVLTQSPDFQSVTPKEKVTITCRASQSIGSSLHWYQQKPVQSPKLLIKYASQSISGVPSRFSGSGSGTVFTLTINSLEAEDAAAYFCHQSSGSPHTFGGGTKVEIK
notes: VH/VL only
Consider B2, for which the results for the “Binding (FOI)” value in test [1] and in test [3] were 61.5 FOI and 73 FOI, respectively. Besides, the binding result in test [2] is reported as “no binding (tested: FOI <10 (FOI >=10 = positive); 25 nM)”.

B3: mAb 258 (antibody, V domains shown)
VH: EVQLLESGGGLVQPGGSLRLSCAASGFTFSNYAMNWVRQAPGKGLEWVSVISNSGGTRLYVDSVKGRFTISRDNSKNTLYLQMSSLRAADTAVYYCAKDAAAALYYYYFYYMDVWGKGTTVTVSS
VL: EIVLTQSPDFQSVTPKEKVTITCRASQSIGSSLHWYQQKPDQSPKLLIKYASQSFSGVPSRFSGSGSGTDFTLTINSLEAEDAATYYCHQSSSLPYTFGQGTKLEIK
notes: VH/VL only
Consider B3, for which the “Binding (FOI)” value in test [1] turned out to be 147 FOI; in test [3], 113 FOI. In addition, the binding result in test [2] is “no binding (tested: FOI <10 (FOI >=10 = positive); 25 nM)”.

B4: mAb 257 (antibody, V domains shown)
VH: QVQLQQSGPGLVKPSQTLSLTCAISGDSVSSNYASWNWIRQSPSRGLEWLGRTYYRSKWYNDFAVSVRSRVTINADTSKNQFSLHLSSVTPEDTAIYFCAREANGRGYFYYMDVWGKGTTVTVSS
VL: EIVLTQSPDFQSVTPKEKVTITCRASQSIGSSLHWYQQKPDQSPKLLIKYASQSISGVPSRFSGSGSGTVFTLTINSLEAEDAAAYFCHQSSGSPHTFGGGTKVEIK
notes: VH/VL only; the printed VH holds a letter U
As for B4, the “Binding (FOI)” value in test [1] was determined as 62.3 FOI; in test [3], 77.7 FOI. In addition, the binding result in test [2] is on record as “no binding (tested: FOI <10 (FOI >=10 = positive); 25 nM)”.

B5: mAb 255 (antibody, V domains shown)
VH: QVQVQQSGPGLVKPSQTLSLTCAISGDSVSSKYASWNWIRQSPSRGLEWLGRTYYRSKWYNDFAVSVKSRITINADTSKNQFSLHLSSVTPEDTAIYFCAREANGRGYFYYMDVWGKGTTVTVSS
VL: EIVLTQSPDFQSVTPKEKVTITCRASQSIGSSLHWYQQKPDQSPKLLIKYASQSISGVPSRFSGSGSGTVFTLTINSLEAEDAAAYFCHQSSGSPHTFGGGTKVEIK
notes: VH/VL only
For the molecule B5, the “Binding (FOI)” value in test [1] was 162 FOI; in test [3] it was 198 FOI. Besides, the binding result in test [2] was “no binding (tested: FOI <10 (FOI >=10 = positive); 25 nM)”.

B6: mAb 267 (antibody, V domains shown)
VH: QVQLQQSGPGLVKPSQTLSLTCAISGDSISSNYASWNWIRQSPSRGLEWLGRTYYRSKWYNDFAVSVKSRIIINPDTSRNQFSLHLNSVTPEDTAIYYCAREANGRGYFYYMDVWGKGTTVTVSS
VL: EIVLTQSPDFQSVTPKEKVTITCRASQSIGSSLHWYQQKPDQSPKLLIKYASQSISGVPSRFSGRGSGTDFTLTINSLEAEDAAAYFCHQSSGSPHTFGGGTKVEIK
notes: VH/VL only
As for B6, the “Binding (FOI)” value in test [1] turned out to be 61.3 FOI; in test [3], 88.8 FOI. Moreover, in test [2], the binding result is “no binding (tested: FOI <10 (FOI >=10 = positive); 25 nM)”.

B7: mAb 266 (antibody, V domains shown)
VH: QVQLQQSGPGLVKPSQTLSLTCAISGDSVSSNYASWNWIRQSPSRGLEWLGRTYYRSKWYIDFAVSVKSRLTINADTSKNQFSLHLRSVTPEDTAIYFCAREANGRGYFYYMDVWGKGTTVTVSS
VL: EIVLTQSPDFQSVTPKEKVTITCRASQSIGSSLHWYQQKPDQSPKLLIKYASQSISGVPSRFSGSGSGTVFTLTINSLEAEDAAAYFCHQSSGSPHTFGGGTKVEIK
notes: VH/VL only
Turning to B7, the “Binding (FOI)” value in test [1] was 85 FOI; in test [3] it was 71.9 FOI. In addition, in test [2], the binding result is given as “no binding (tested: FOI <10 (FOI >=10 = positive); 25 nM)”.

B8: mAb 251 (antibody, V domains shown)
VH: EVQILESGGGLVQPGGSLRLSCVASGFTFRSYVMSWVRRAPGRGLEWVSGISASGGNTYYADSVKGRFTISRDNSKNTLFLQMNGLRAEDTAVYYCAKLFSYYYYFMDVWGKGTTVTVSS
VL: SYELTQPLSVSVALGQTARITCGGNNIGSKDVHWYQQKPGQAPVLVIYRDSNRPSGIPERFSGSNSGNTATLTISGAQAGDEADYYCQVWDRRTAVFGGGTQLTAL
notes: VH/VL only
For B8, the “Binding (FOI)” value is 215 FOI in test [1] and 297 FOI in test [3]. In addition, in test [2], the binding result is recorded as “no binding (tested: FOI <10 (FOI >=10 = positive); 25 nM)”.

B9: mAb 263 (antibody, V domains shown)
VH: EVQLLESGGGLVQPGGSLRLSCTPSGITFNNYAMTWVRQAPGKGLEWVSGISVSGGSTYYADSVMGRFTISRDSSKTLYLQMNSLRAEDTAVYYCAKFHSHYYYYMDVWGKGTTVTVSS
VL: SYELTQPLSVSVALGQTARITCGGNNIGSKDVHWYQQKPGQAPVLVIYRDSNRPSGIPERFSGSNSGNTATLTISRAQAGDEADYYCQVWDRRTAVFGGGTQLTAL
notes: VH/VL only
For B9, the “Binding (FOI)” value in test [1] stood at 188 FOI; in test [3], 248 FOI. Moreover, the binding result in test [2] is given as “no binding (tested: FOI <10 (FOI >=10 = positive); 25 nM)”.

B10: mAb 264 (antibody, V domains shown)
VH: EVQLLESGGGLVQPGGSLRLSCVASGFTFRSSSMTWVRQAPGKGLEWVSGIRGSGGRTYDAESVKGRFTISRDNSKNTLYLQMNSLRAEDTAEYYCAKLYDYYNDYMDVWGKGTTVTVSS
VL: SYELTQPLSVSVALGQTARITCGGNNIGSKNVHWYQQKPGQAPVLVIYRDSNRPSGIPERFSGSNSGNTATLTISRAQAGDEADYYCQVWDSSTAVFGGGTQLTAL
notes: VH/VL only
Consider B10, for which the “Binding (FOI)” value in test [1] was determined as 174 FOI; in test [3], 220 FOI. Moreover, the binding result in test [2] was “no binding (tested: FOI <10 (FOI >=10 = positive); 25 nM)”.

B11: mAb 259 (antibody, V domains shown)
VH: EVLLLESGGGLVQPGGSLRLSCAASGFTFRSSSMTWVRQAPGKGLEWVSGIRGSGGRTYDAESVKGRFTISRDISKNTLYLQMNSVRAEDTAEYYCAKLYDYYNDYMDVWGKGTTVTVSS
VL: SYELTQPLSVSVALGQTARITCGGNNIGSKNVHWYQQKPGQAPVLVIYRDSNRPSGIPERFSGSNSGNTATLTISRAQAGDEADYYCQVWDSSTAVFGGGTQLTAL
notes: VH/VL only
Consider B11, for which the “Binding (FOI)” value in test [1] is 169 FOI; in test [3] it was 214 FOI. Moreover, the binding result in test [2] is “no binding (tested: FOI <10 (FOI >=10 = positive); 25 nM)”.

B12: mAb 260 (antibody, V domains shown)
VH: EVQLLESGGGLVQPGGSLRLSCVASGFTFRSSSMAWVRQAPGKGLEWVSGIRGSGGRTYDAESVKGRFIISRDTSKNTLYLQMNSLRGEDTAEYFCAKLYDYYNDYMDVWGKGTTVTVSS
VL: SYELTQPLSVSVALGQTARITCGGNNIGSKNVHWYQQKPGQAPVLVIYRDSNRPSGIPERFSGSNSGNTATLTISRAQAGDEADYYCQVWDSSTAVFGGGTQLTAL
notes: VH/VL only
Consider B12, for which the “Binding (FOI)” value in test [1] amounted to 178 FOI; in test [3], 219 FOI. The binding result in test [2] is listed as “no binding (tested: FOI <10 (FOI >=10 = positive); 25 nM)”.

B13: mAb 261 (antibody, V domains shown)
VH: EVQLLESGGGFMQPGGSLRLSCAVSGFTFRTSSMAWVRQAPGKGLEWVSGIRGSGGRTYDAESVKGRFTISRDISKNTLYLQMNNLRAEDTAEYYCAKLYDYYNDFMDVWGKGTTVIVSA
VL: SYELTQPLSVSVALGQTARITCGGNNIGSKNVHWYQQKPGQAPVLVIYRDSNRPSGIPERFSGSNSGNTATLTISRAQAGDEADYYCQVWDSSTAVFGGGTQLTAL
notes: VH/VL only
Regarding B13, the “Binding (FOI)” value stood at 188 FOI in test [1] and 229 FOI in test [3]. In addition, the binding result in test [2] is given as “no binding (tested: FOI <10 (FOI >=10 = positive); 25 nM)”.

B14: mAb 262 (antibody, V domains shown)
VH: EVRLLESGGGLVQPGGSLRLSCAASGFTFRSSSMAWVRQDPGKGLEWVTGIRGSGGRTYDADSVKGRFTISRDNSKNTLYLQMNSLRAEDTAEYYCAKLYDYYNDYMDVWGKGTTVTVSS
VL: SYELTQPLSVSVALGQTARITCGGNNIGSKNVHWYQQKPGQAPVLVIYRDSNRPSGIPERFSGSNSGNTATLTISRAQAGDEADYYCQVWDSSTAVFGGGTQLTAL
notes: VH/VL only
For the molecule B14, the results for the “Binding (FOI)” value in test [1] and in test [3] were 165 FOI and 219 FOI, respectively. The binding result in test [2] is “no binding (tested: FOI <10 (FOI >=10 = positive); 25 nM)”.

B15: mAb 252 (antibody, V domains shown)
VH: EVQILESGGGLVQPGGSLRLSCVASGFTFRSYVMSWVRRAPGRGLEWVSGISTSGGNTYYADSVKGRFTISRDNSKNTLFLQMNGLRAEDTAVYYCAKLFSYYYYFMDVWGKGTTVTVSS
VL: SYELTQPLSVSVALGQTARITCGGNNIGSKDVHWYQQKPGQAPVLVIYRDSNRPSGIPERFSGSNSGNTATLTISGAQAGDEADYYCQVWDRRTAVFGGGTQLTAL
notes: VH/VL only
In the case of B15, the “Binding (FOI)” value in test [1] was found to be 184 FOI; in test [3] it was 270 FOI. In addition, the binding result in test [2] is given as “no binding (tested: FOI <10 (FOI >=10 = positive); 25 nM)”.

B16: mAb 283 (antibody, V domains shown)
VH: QVHLVQSGAEVKKPGASVRVSCKASGYTFTGYYIHWLRQAPGQGLEWLGWINPNSGGTNYSQKFRGRVTMTRDTSISTAYMELSRLRSDDTAVYYCARDKVWEQQLVGGFDYWGQGTLVTVSS
VL: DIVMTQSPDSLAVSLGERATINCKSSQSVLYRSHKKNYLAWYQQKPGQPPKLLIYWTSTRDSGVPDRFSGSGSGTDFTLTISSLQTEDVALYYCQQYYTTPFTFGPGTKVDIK
notes: VH/VL only
As to B16, the figures for the “Binding (FOI)” value in test [1] and in test [3] were 216 FOI and 128 FOI, respectively. In test [2], the binding result is “no binding (tested: FOI <10 (FOI >=10 = positive); 25 nM)”.
